The values below come from publication doi:10.1101/2025.02.20.639385.

The test deals with MBP-RAB23T22N (Chlamydomonas reinhardtii). Description: SEC.

One may read the stoichiometry N as a count of units in the complex or per binding partner. “RAB18S22N (bacterially expressed, 6×His-tag removed) (natural protein)” returned a stoichiometry N of 1.
